2 variants from IntAct's records for PubMed 11473260 can be followed below.

B1: SAGA complex/transcription factor TFIID complex subunit TAF12 (Saccharomyces cerevisiae), Q03761 (parent)
chain: MSSNPENSGVNANNNTGTGNADAITGAQQNMVLQPRQLQEMAAKFRTLLTEARNVGETTPRGKELMFQAAKIKQVYDALTLNRRRQQAAQAYNNTSNSNSSNPASIPTENVPNSSQQQQQQQQQTRNNSNKFSNMIKQVLTPEENQEYEKLWQNFQVRHTSIKEKETYLKQNIDRLEQEINKQTDEGPKQQLQEKKIELLNDWKVLKIEYTKLFNNYQNSKKTFYVECARHNPALHKFLQESTQQQRVQQQRVQQQQQQQQQQQQQQQQQQQQQQQRQGQNQRKISSSNSTEIPSVTGPDALKSQQQQQNTITATNNPRGNVNTSQTEQSKAKVTNVNATASMLNNISSSKSAIFKQTEPAIPISENISTKTPAPVAYRSNRPTITGGSAMNASALNTPATTKLPPYEMDTQRVMSKRKLRELVKTVGIDEGDGETVIDGDVEELLLDLADDFVTNVTAFSCRLAKHRKSDNLEARDIQLHLERNWNIRIPGYSADEIRSTRKWNPSQNYNQKLQSITSDKVAAAKNNGNNVASLNTKK
partner: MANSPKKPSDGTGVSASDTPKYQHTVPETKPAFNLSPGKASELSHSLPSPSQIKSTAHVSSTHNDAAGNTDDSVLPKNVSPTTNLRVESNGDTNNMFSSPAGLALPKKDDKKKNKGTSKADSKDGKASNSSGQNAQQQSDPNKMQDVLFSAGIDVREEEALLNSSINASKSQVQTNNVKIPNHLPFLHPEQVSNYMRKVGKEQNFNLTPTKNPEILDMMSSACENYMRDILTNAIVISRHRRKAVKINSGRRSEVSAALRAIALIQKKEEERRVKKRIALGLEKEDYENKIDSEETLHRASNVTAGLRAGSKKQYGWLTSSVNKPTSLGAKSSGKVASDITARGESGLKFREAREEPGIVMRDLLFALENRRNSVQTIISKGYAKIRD

The test covers variants of B1. Conditions: with taf4_yeast TAF4, P50105.
In the case of L446A, the “effect of a mutation on the interaction” value is given as “disrupting interaction”.

On to L449A, for which the “effect of a mutation on the interaction” value was “disrupting interaction”.
